Test results reported in the supplement of paper PMC9112550, “Optimization of the antimicrobial peptide Bac7 by deep mutational scanning” (BMC Biology, 2022).

system: Escherichia coli TOP10; experiment: shrunken log2 fold change of peptide-encoding DNA abundance (4.5 h post-induction vs induction); higher = less antimicrobial activity (less host growth inhibition); conditions: time post-induction: 4.5 h; library: site-saturation at positions 5, 18, 19, 20
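Also: peptides expressed intracellularly from a pBAD plasmid library in pooled LB shake-flask culture, induced with 0.3% L-arabinose, DNA abundance read by NGS, three biological replicates, DESeq2 with apeglm shrinkage.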

Question: With RRIRHRPPRLPRPRPRPHTHPRP as the sequence, how does the “shrunken log2 fold change” value read?
Answer: -0.725

Question: Which “shrunken log2 fold change” value does the source give for RRIRSRPPRLPRPRPRPDENPRP here?
Answer: 0.11

Question: Which “shrunken log2 fold change” value does the source give for RRIRPRPPRLPRPRPRPEKLPRP here?
Answer: 0.226

Question: How did the “shrunken log2 fold change” value turn out when RRIRSRPPRLPRPRPRPNQPPRP was run?
Answer: 0.0618

Question: RRIRLRPPRLPRPRPRPLPWPRP was tested. Which “shrunken log2 fold change” value did it give?
Answer: 0.334

Question: For RRIRHRPPRLPRPRPRPMHDPRP, which “shrunken log2 fold change” value is on record?
Answer: -0.0353

Question: How did the “shrunken log2 fold change” value turn out when RRIRCRPPRLPRPRPRPKRLPRP was run?
Answer: 0.0169

Question: RRIRHRPPRLPRPRPRPELIPRP was tested. Which “shrunken log2 fold change” value did it give?
Answer: -0.0454

Question: Which “shrunken log2 fold change” value does the source give for RRIRRRPPRLPRPRPRPGCFPRP here?
Answer: 0.5

Question: Which “shrunken log2 fold change” value does the source give for RRIRKRPPRLPRPRPRPIQFPRP here?
Answer: 0.0779

Question: How did the “shrunken log2 fold change” value turn out when RRIRPRPPRLPRPRPRPKEFPRP was run?
Answer: -0.0187

Question: Which “shrunken log2 fold change” value does the source give for RRIRIRPPRLPRPRPRPCQQPRP here?
Answer: -0.0169

Question: With RRIRDRPPRLPRPRPRPQRNPRP as the sequence, how does the “shrunken log2 fold change” value read?
Answer: -0.0378

Question: Which “shrunken log2 fold change” value does the source give for RRIRNRPPRLPRPRPRPTHGPRP here?
Answer: -0.0213

Question: For RRIRHRPPRLPRPRPRPSPGPRP, which “shrunken log2 fold change” value is on record?
Answer: -0.051

Question: Which “shrunken log2 fold change” value does the source give for RRIRFRPPRLPRPRPRPARNPRP here?
Answer: 0.0979

Question: For RRIRKRPPRLPRPRPRPQVLPRP, which “shrunken log2 fold change” value is on record?
Answer: -0.165

Question: For RRIRKRPPRLPRPRPRPRALPRP, which “shrunken log2 fold change” value is on record?
Answer: 0.396

Question: How did the “shrunken log2 fold change” value turn out when RRIRIRPPRLPRPRPRPPYPPRP was run?
Answer: -0.188

Question: With RRIRCRPPRLPRPRPRPWLSPRP as the sequence, how does the “shrunken log2 fold change” value read?
Answer: -0.215

Question: With RRIRPRPPRLPRPRPRPPCYPRP as the sequence, how does the “shrunken log2 fold change” value read?
Answer: 0.0837

Question: With RRIRLRPPRLPRPRPRPCIPPRP as the sequence, how does the “shrunken log2 fold change” value read?
Answer: -0.194

Question: With RRIRVRPPRLPRPRPRPGSPPRP as the sequence, how does the “shrunken log2 fold change” value read?
Answer: 0.187

Question: How did the “shrunken log2 fold change” value turn out when RRIRQRPPRLPRPRPRPRGIPRP was run?
Answer: -0.107

Question: With RRIRMRPPRLPRPRPRPRCVPRP as the sequence, how does the “shrunken log2 fold change” value read?
Answer: 0.581

Question: With RRIRFRPPRLPRPRPRPDHGPRP as the sequence, how does the “shrunken log2 fold change” value read?
Answer: 0.0405

Question: Which “shrunken log2 fold change” value does the source give for RRIRDRPPRLPRPRPRPTFCPRP here?
Answer: 0.164

Question: How did the “shrunken log2 fold change” value turn out when RRIRNRPPRLPRPRPRPRRWPRP was run?
Answer: 0.701

Question: Which “shrunken log2 fold change” value does the source give for RRIRFRPPRLPRPRPRPYWDPRP here?
Answer: -2.48

Question: With RRIRLRPPRLPRPRPRPCAKPRP as the sequence, how does the “shrunken log2 fold change” value read?
Answer: 0.132

Question: With RRIRARPPRLPRPRPRPETVPRP as the sequence, how does the “shrunken log2 fold change” value read?
Answer: 0.312

Question: Which “shrunken log2 fold change” value does the source give for RRIRGRPPRLPRPRPRPIFEPRP here?
Answer: 0.357

Question: With RRIRPRPPRLPRPRPRPYDCPRP as the sequence, how does the “shrunken log2 fold change” value read?
Answer: -0.021

Question: RRIRLRPPRLPRPRPRPNYSPRP was tested. Which “shrunken log2 fold change” value did it give?
Answer: -0.718

Question: For RRIRWRPPRLPRPRPRPLPGPRP, which “shrunken log2 fold change” value is on record?
Answer: 0.215

Question: RRIRIRPPRLPRPRPRPFTKPRP was tested. Which “shrunken log2 fold change” value did it give?
Answer: -0.173

Question: For RRIRPRPPRLPRPRPRPWCNPRP, which “shrunken log2 fold change” value is on record?
Answer: -0.239

Question: How did the “shrunken log2 fold change” value turn out when RRIRNRPPRLPRPRPRPRFGPRP was run?
Answer: 0.399

Question: RRIRHRPPRLPRPRPRPQKKPRP was tested. Which “shrunken log2 fold change” value did it give?
Answer: -0.421

Question: With RRIRMRPPRLPRPRPRPKEWPRP as the sequence, how does the “shrunken log2 fold change” value read?
Answer: 0.0859

Question: How did the “shrunken log2 fold change” value turn out when RRIRIRPPRLPRPRPRPLQSPRP was run?
Answer: -0.0353

Question: With RRIRWRPPRLPRPRPRPHCLPRP as the sequence, how does the “shrunken log2 fold change” value read?
Answer: 0.0644

Question: Which “shrunken log2 fold change” value does the source give for RRIRFRPPRLPRPRPRPKYDPRP here?
Answer: -0.606

Question: For RRIRDRPPRLPRPRPRPDSFPRP, which “shrunken log2 fold change” value is on record?
Answer: -0.00691

Question: With RRIRQRPPRLPRPRPRPRVAPRP as the sequence, how does the “shrunken log2 fold change” value read?
Answer: 0.337

Question: For RRIRERPPRLPRPRPRPKICPRP, which “shrunken log2 fold change” value is on record?
Answer: 0.0135

Question: Which “shrunken log2 fold change” value does the source give for RRIRQRPPRLPRPRPRPQGPPRP here?
Answer: 0.189

Question: Which “shrunken log2 fold change” value does the source give for RRIRKRPPRLPRPRPRPLWPPRP here?
Answer: 0.46

Question: With RRIRARPPRLPRPRPRPNSYPRP as the sequence, how does the “shrunken log2 fold change” value read?
Answer: -0.00611

Question: How did the “shrunken log2 fold change” value turn out when RRIRERPPRLPRPRPRPHLKPRP was run?
Answer: -0.268

Question: With RRIRDRPPRLPRPRPRPEWQPRP as the sequence, how does the “shrunken log2 fold change” value read?
Answer: 0.0508

Question: For RRIRHRPPRLPRPRPRPNDDPRP, which “shrunken log2 fold change” value is on record?
Answer: -0.259

Question: How did the “shrunken log2 fold change” value turn out when RRIRWRPPRLPRPRPRPDTRPRP was run?
Answer: -0.0523

Question: RRIRHRPPRLPRPRPRPDHDPRP was tested. Which “shrunken log2 fold change” value did it give?
Answer: 0.0111

Question: Which “shrunken log2 fold change” value does the source give for RRIRWRPPRLPRPRPRPIQPPRP here?
Answer: 0.0851

Question: With RRIRVRPPRLPRPRPRPHCDPRP as the sequence, how does the “shrunken log2 fold change” value read?
Answer: -0.401

Question: RRIRPRPPRLPRPRPRPCDQPRP was tested. Which “shrunken log2 fold change” value did it give?
Answer: -0.758

Question: Which “shrunken log2 fold change” value does the source give for RRIRARPPRLPRPRPRPETGPRP here?
Answer: 0.772

Question: RRIRLRPPRLPRPRPRPMTVPRP was tested. Which “shrunken log2 fold change” value did it give?
Answer: -0.108

Question: RRIRWRPPRLPRPRPRPSIWPRP was tested. Which “shrunken log2 fold change” value did it give?
Answer: -0.353

Question: With RRIRWRPPRLPRPRPRPPQRPRP as the sequence, how does the “shrunken log2 fold change” value read?
Answer: 0.548

Question: RRIRYRPPRLPRPRPRPWFIPRP was tested. Which “shrunken log2 fold change” value did it give?
Answer: -0.054

Question: For RRIRFRPPRLPRPRPRPPRVPRP, which “shrunken log2 fold change” value is on record?
Answer: 0.605

Question: RRIRIRPPRLPRPRPRPMRMPRP was tested. Which “shrunken log2 fold change” value did it give?
Answer: 0.0697

Question: How did the “shrunken log2 fold change” value turn out when RRIRARPPRLPRPRPRPAKKPRP was run?
Answer: -0.0777

Question: RRIRYRPPRLPRPRPRPWCQPRP was tested. Which “shrunken log2 fold change” value did it give?
Answer: -0.243

Question: RRIRCRPPRLPRPRPRPKRIPRP was tested. Which “shrunken log2 fold change” value did it give?
Answer: -0.143

Question: RRIRGRPPRLPRPRPRPMFWPRP was tested. Which “shrunken log2 fold change” value did it give?
Answer: 0.336

Question: How did the “shrunken log2 fold change” value turn out when RRIRPRPPRLPRPRPRPMRYPRP was run?
Answer: 0.0689

Question: Which “shrunken log2 fold change” value does the source give for RRIRWRPPRLPRPRPRPKNDPRP here?
Answer: 0.0313

Question: With RRIRQRPPRLPRPRPRPDLIPRP as the sequence, how does the “shrunken log2 fold change” value read?
Answer: 0.0281

Question: For RRIRARPPRLPRPRPRPQSHPRP, which “shrunken log2 fold change” value is on record?
Answer: -0.162

Question: RRIRERPPRLPRPRPRPAIFPRP was tested. Which “shrunken log2 fold change” value did it give?
Answer: -0.12

Question: With RRIRARPPRLPRPRPRPMIFPRP as the sequence, how does the “shrunken log2 fold change” value read?
Answer: 0.292

Question: RRIRHRPPRLPRPRPRPFHIPRP was tested. Which “shrunken log2 fold change” value did it give?
Answer: -0.0345
